According to patent US20130196377A1 (SAMSUNG ELECTRONICS, published 2013):

Biological target: T1, human EGFR extracellular domain (Prospec) (human, UniProt P00533 25-645)
T1 construct: extracellular domain; Bought protein; also called epidermal growth factor receptor
Experiment: SPR (Biacore T100); antibody captured on anti-human IgG CM5 chip, EGFR extracellular domain 6.25-100 nM as analyte; 1:1 Langmuir model
Text: 1× HBS-EP (GE healthcare) was used as a running buffer and a dilution buffer. About 5,000 RU (response unit) of an Anti-human IgG antibody (Jackson Immuno Research) were immobilized on a surface of a CM5 chip (GE healthcare) by standard amine-coupling. […] A contact time (association phase) was 180 seconds, and a separation time (washing with running buffer) was 600 seconds. After each binding cycle was terminated, Glycine-HCl pH 2.0 (GE healthcare) as a regeneration solution was flown onto the chip at a flow rate of 50 μL/min for 1 minute to remove the combined antigen and antibody from the chip. A sensorgram was obtained therefrom such that a fitting process was performed in BIA evaluation software by using a 1:1 Langmuir binding model for the EGFR case and by using a bivalent analyte model for the VEGF case.

Kd: 4.91 nM
B1: (E2)2, monospecific antibody recognizing the EGFR (antibody, human IgG1, V domains shown)
VL: DIQMTQSPTSLSASVGDRVTITCRASQWIGNLLDWYQQKPGEAPKLLIYYASFLQSGVPSRFSGGGFGTDFTLTISSLQPEDFATYYCQQANPAPLTFGQGTKVEIKR
notes: Homodimer of E2-hinge-Fc chains, inferred from the label (E2)2
